Data on seven molecules can be found in article PMC9452701, “Highly efficient production of rebaudioside D enabled by structure-guided engineering of bacterial glycosyltransferase YojK” (Frontiers in Bioengineering and Biotechnology, 2022).

Changes are numbered by the printed parent chain. Names and notes keep the numbering of the source.

B1: YojK (Bacillus subtilis subsp. subtilis str. 168) (protein)
chain: MANVLMIGFPGEGHINPSIGVMKELKSRGENITYYAVKEYKEKITALDIEFREYHDFRGDYFGKNATGDEERDFTEMLCAFLKACKDIATHIYEEVKHESYDYVIYDHHLLAGKVIANMLKLPRFSLCTTFAMNEEFAKEMMGAYMKGSLEDSPHYESYQQLAETLNADFQAEIKKPFDVFLADGDLTIVFTSRGFQPLAEQFGERYVFVGPSITERAGNNDFPFDQIDNENVLFISMGTIFNNQKQFFNQCLEVCKDFDGKVVLSIGKHIKTSELNDIPENFIVRPYVPQLEILKRASLFVTHGGMNSTSEGLYFETPLVVIPMGGDQFVVADQVEKVGAGKVIKKEELSESLLKETIQEVMNNRSYAEKAKEIGQSLKAAGGSKKAADSILEAVKQKTQSANA
B2: YojK (Bacillus subtilis subsp. subtilis str. 168; G326F) (protein)
chain: B1 chain with G326F
B3: YojK (Bacillus subtilis subsp. subtilis str. 168; G327N/I241T) (protein)
chain: B1 chain with I241T, G327N
B4: YojK (Bacillus subtilis subsp. subtilis str. 168; I241T) (protein)
chain: B1 chain with I241T
B5: YojK (Bacillus subtilis subsp. subtilis str. 168; G326F/I241T) (protein)
chain: B1 chain with I241T, G326F
B6: YojK (Bacillus subtilis subsp. subtilis str. 168; G327N) (protein)
chain: B1 chain with G327N

Substrate in the first data set: C=C1C[C@@]23CC[C@H]4[C@@](C)(CCC[C@@]4(C)C(=O)O[C@@H]4O[C@H](CO)[C@@H](O)[C@H](O)[C@H]4O)[C@@H]2CC[C@]1(O[C@@H]1O[C@H](CO)[C@@H](O)[C@H](O[C@@H]2O[C@H](CO)[C@@H](O)[C@H](O)[C@H]2O)[C@H]1O[C@@H]1O[C@H](CO)[C@@H](O)[C@H](O)[C@H]1O)C3
In words: purified protein. The following applies: 5 mM UDPG, 10 mM MnCl2, 50 mM Tris-HCl pH 8.0, 35°C, 20 min, Reb A 0.05-0.7 mM.
Usually Km stands for the concentration of substrate that gives half-maximal velocity. The kcat is the maximal rate divided by the concentration of active sites. One may read the kcat/Km as the second-order rate constant that governs catalysis at low substrate concentration. For B1, the Km turned out to be 210.52 ± 11.70 µM, the kcat was 0.018 s⁻¹ and the kcat/Km stood at 85.5 M⁻¹ s⁻¹.
Regarding B2, the Km worked out at 290.16 ± 8.34 µM, the kcat was determined as 0.154 s⁻¹ and the kcat/Km turned out to be 528 M⁻¹ s⁻¹.
For B3, in that order: 193.07 ± 7.30 µM, 0.179 s⁻¹ and 929 M⁻¹ s⁻¹.
Taken in the same sequence, the figures for B4 were 197.74 ± 9.25 µM, 0.0223 s⁻¹ and 113 M⁻¹ s⁻¹.
Taken in the same sequence, the figures for B5 were 347.63 ± 24.23 µM, 0.258 s⁻¹ and 741 M⁻¹ s⁻¹.
Regarding B6, the Km was 176.23 ± 10.62 µM, the kcat was found to be 0.0837 s⁻¹ and the kcat/Km is 475 M⁻¹ s⁻¹.

The next data set has as its target T1, YojK (Bacillus subtilis, UniProt O31853).
T1 construct: codon-optimized synthetic gene in pET-21b(+), E. coli BL21(DE3), Ni-NTA and Superdex 200; M1-M405 described; two monomers per asymmetric unit
T1 sequence (O31853 1-405): B1 chain
The data set is described as follows: X-ray crystal structure, […] Å. In kind it is binding. Conditions: co-crystallised with 5 mM UDP, pH 8.0, 18°C; sugar donor site.
For `O=c1ccn([C@@H]2O[C@H](COP(=O)(O)OP(=O)(O)O)[C@@H](O)[C@H]2O)c(=O)[nH]1` [UDP], the “X-ray crystal structure, 1.90 Å” value is reported as “we solved the crystal structure of YojK in complex with uridine diphosphate (UDP)”.
